Results on 21 molecules are retold here after patent US20150196651A1 (published 2015).

Assay [1] deals with T1, rat PrRP receptor in RC-4B/C cells (rat, UniProt Q64121 1-370).
T1 construct: whole, on cells; endogenous receptor of RC-4B/C cells (ATCC); also called rat receptor; GPR10 receptor expressed in rat hypophyseal cells
T1 sequence (looked up): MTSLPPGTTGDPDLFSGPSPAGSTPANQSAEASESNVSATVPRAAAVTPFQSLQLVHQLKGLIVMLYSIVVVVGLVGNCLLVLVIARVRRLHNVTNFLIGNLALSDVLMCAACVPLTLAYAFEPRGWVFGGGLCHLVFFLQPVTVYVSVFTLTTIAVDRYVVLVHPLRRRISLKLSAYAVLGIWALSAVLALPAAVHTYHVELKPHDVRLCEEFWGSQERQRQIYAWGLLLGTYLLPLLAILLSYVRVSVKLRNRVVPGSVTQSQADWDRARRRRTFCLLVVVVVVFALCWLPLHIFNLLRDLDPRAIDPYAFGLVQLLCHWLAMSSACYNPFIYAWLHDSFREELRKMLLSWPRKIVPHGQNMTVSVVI
Briefly: competition with 125I-rat PrRP31, RC-4B/C cells. A digest of the protocol:
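Incubation 60 min at room temperature; cells solubilized in 0.1 mol/l NaOH and bound radioactivity γ-counted. Run in duplicate, repeated at least three times.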

Assay [2] deals with T2, human PrRP receptor GPR10 (human, UniProt P49683 1-370).
T2 construct: whole, on cells; also called GPR10 human receptor transfected in CHO cells; human GPR10 receptor
T2 sequence (looked up): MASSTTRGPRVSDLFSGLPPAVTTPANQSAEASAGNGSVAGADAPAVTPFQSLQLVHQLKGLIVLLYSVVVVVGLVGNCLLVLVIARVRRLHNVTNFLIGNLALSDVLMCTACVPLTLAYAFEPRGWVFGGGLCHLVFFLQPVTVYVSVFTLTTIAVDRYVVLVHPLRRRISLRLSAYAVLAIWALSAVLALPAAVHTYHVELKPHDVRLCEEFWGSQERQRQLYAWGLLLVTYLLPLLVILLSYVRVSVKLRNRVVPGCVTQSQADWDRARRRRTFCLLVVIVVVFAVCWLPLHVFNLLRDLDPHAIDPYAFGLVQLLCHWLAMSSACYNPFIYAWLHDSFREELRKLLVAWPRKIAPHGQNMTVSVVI
Briefly: competition with 125I-human PrRP31, CHO cells with human GPR10.

Numbered stars: 1 amine (or outer) side, 2 acyl side, 3 side chain; on linkers, the order of the positions; unused ones are H or OH. Square brackets hold non-standard residues; d marks the D form. Side chains are listed from the residue outwards. Ends that are not written are not given here. * marks the point of attachment. γGlu = O=C(O)[C@H](CCC(=O)[*:2])N[*:1]; 1Nal = N[C@@H](Cc1cccc2ccccc12)C(=O)O; Stearoyl = CCCCCCCCCCCCCCCCCC(=O)*; Palmitoyl = CCCCCCCCCCCCCCCC(=O)*; Myristoyl = CCCCCCCCCCCCCC(=O)*; PheCl2 = dichlorophenylalanine; Lauroyl = CCCCCCCCCCCC(=O)*; PheNO2 = nitrophenylalanine; Decanoyl = CCCCCCCCCC(=O)*; Nle = CCCC[C@H](N)C(=O)O; Octanoyl = CCCCCCCC(=O)*

B1: analog no. 2 (peptide)
peptide: Myristoyl-TPDINPAWYASRGIRPVGRF-NH2
SMILES: CCCCCCCCCCCCCC(=O)N[C@H](C(=O)N1CCC[C@H]1C(=O)N[C@@H](CC(=O)O)C(=O)N[C@H](C(=O)N[C@@H](CC(N)=O)C(=O)N1CCC[C@H]1C(=O)N[C@@H](C)C(=O)N[C@@H](Cc1c[nH]c2ccccc12)C(=O)N[C@@H](Cc1ccc(O)cc1)C(=O)N[C@@H](C)C(=O)N[C@@H](CO)C(=O)N[C@@H](CCCNC(=N)N)C(=O)NCC(=O)N[C@H](C(=O)N[C@@H](CCCNC(=N)N)C(=O)N1CCC[C@H]1C(=O)N[C@H](C(=O)NCC(=O)N[C@@H](CCCNC(=N)N)C(=O)N[C@@H](Cc1ccccc1)C(N)=O)C(C)C)[C@@H](C)CC)[C@@H](C)CC)[C@@H](C)O
On to B1, for which the “% of PrRP31” value in assay [1] amounted to 1030%; in assay [2], 90%. The Ki – broadly, a dissociation constant, usually derived from enzyme kinetics or from competition with a known ligand – turned out to be 0.48 nM in assay [1] and 4.33 nM in assay [2].

Consider Lauroyl-SRAHQHS[Nle]ETRTPDINPAWYTGRGIRPVGRF-NH2 [analog no. 6], for which, in assay [1], the “% of PrRP31” value worked out at 1260% and the affinity, expressed as Ki, was 0.39 nM. In assay [2], the “% of PrRP31” value was 327% and the Ki amounted to 1.19 nM.

For SRAHQHS[Nle]ETRTPDINPAWYTGRGIRPVGR[PheNO2]-NH2 [analog no. 16], in assay [1], the “% of PrRP31” value turned out to be 2.5% and the affinity, expressed as Ki, was 19.9 nM. In addition, in assay [2], the “% of PrRP31” value came out at 81% and the inhibition constant (Ki) is 4.8 nM.

For Palmitoyl-SRAHQHS[Nle]ETRTPDINPAWYTGRGIRPVGR[1Nal]-NH2 [analog no. 12], the “% of PrRP31” value in assay [1] came out at 227%; in assay [2] it was 91%. The Ki in assay [1] was 2.17 nM; in assay [2], 4.27 nM.

Take Myristoyl-SRAHQHS[Nle]ETRTPDINPAWYTGRGIRPVGR[1Nal]-NH2 [analog no. 11]: in assay [1], the “% of PrRP31” value was found to be 124% and the Ki is 3.96 nM. In assay [2], the “% of PrRP31” value came out at 292% and the Ki came to 1.33 nM.

Myristoyl-SHQRPADTHWYPRG[Nle]FPTIGRITARNGEVSR (scrambled peptide; also called 20 scram) [analog no. 20]: in assay [1], the “% of PrRP31” value came to 4.6% and the Ki stood at 123 nM. Moreover, in assay [2], the “% of PrRP31” value stood at 1.5% and the Ki came to 262 nM.

As for Stearoyl-SRAHQHS[Nle]ETRTPDINPAWYTGRGIRPVGRF-NH2 [analog no. 9], in assay [1], the “% of PrRP31” value came out at 514% and the Ki worked out at 0.96 nM. In addition, in assay [2], the “% of PrRP31” value came out at 72% and the Ki worked out at 5.39 nM.

For Decanoyl-SRAHQHS[Nle]ETRTPDINPAWYTGRGIRPVGRF-NH2 [analog no. 5], in assay [1], the “% of PrRP31” value amounted to 758% and the affinity, expressed as Ki, was 0.65 nM. Moreover, in assay [2], the “% of PrRP31” value is 266% and the Ki was found to be 1.46 nM.

Regarding Palmitoyl-SRAHQHS[Nle]ETRTPDINPAWYTGRGIRPVGR[PheNO2]-NH2 [analog no. 18], in assay [1], the “% of PrRP31” value worked out at 850% and the Ki was 0.58 nM. Also, in assay [2], the “% of PrRP31” value was determined as 505% and the affinity, expressed as Ki, was 0.77 nM.

Myristoyl-SRAHQHS[Nle]ETRTPDINPAWYTGRGIRPVGRF-NH2 [analog no. 7]: in assay [1], the “% of PrRP31” value turned out to be 714% and the inhibition constant (Ki) is 0.69 nM. In assay [2], the “% of PrRP31” value was 548% and affinity was put at a Ki of 0.71 nM.

Take SRAHQHS[Nle]ETRTPDINPAWYTGRGIRPVGR[PheCl2]-NH2 [analog no. 13]: in assay [1], the “% of PrRP31” value came out at 128% and the Ki stood at 3.84 nM. Further, in assay [2], the “% of PrRP31” value was 171% and the Ki is 2.27 nM.

Take Myristoyl-SRAHQHS[Nle]ETRTPDINPAWYTGRGIRPVGR[PheNO2]-NH2 [analog no. 17]: in assay [1], the “% of PrRP31” value is 250% and the affinity, expressed as Ki, was 1.97 nM. In assay [2], the “% of PrRP31” value came out at 245% and the affinity, expressed as Ki, was 1.59 nM.

Palmitoyl-SRAHQHS[Nle]ETRTPDINPAWYTGRGIRPVGRF-NH2 [analog no. 8]: in assay [1], the “% of PrRP31” value amounted to 967% and the Ki came out at 0.51 nM. Moreover, in assay [2], the “% of PrRP31” value was 128% and the Ki was 3.03 nM.

In the case of Myristoyl-SRAHQHS[Nle]ETRTPDINPAWYTGRGIRPVGR[PheCl2]-NH2 [analog no. 14], in assay [1], the “% of PrRP31” value is 275% and the Ki is 1.79 nM. Also, in assay [2], the “% of PrRP31” value is 409% and the Ki worked out at 0.95 nM.

As for SETHRHSMEIK([γGlu-Palmitoyl])TPDINPAWYASRGIRPVGRF-NH2 [analog no. 55], in assay [1], the “% of PrRP31” value is 236%. Moreover, in assay [2], the “% of PrRP31” value is 83% and the Ki came to 4.72 nM.

Consider SRTHRHSMEIKTPDINPAWYASRGIRPVGRF-NH2 (not fully specified (residue 11)) [analog no. 57], for which, in assay [1], the “% of PrRP31” value was found to be 663% and the Ki amounted to 0.36 nM. Further, in assay [2], the “% of PrRP31” value came out at 103% and the Ki stood at 3.79 nM.

B2: analog no. 59 (peptide)
peptide: SRTHRHSMEIKTPDINPAWYASRGIRPVGRF
modifications: (N-palm(N-POE)) at the N-terminus; K(N-palm(N-POE)) at residue 11; C-terminal amide
B2: in assay [1], the “% of PrRP31” value was found to be 85% and the Ki was determined as 2.82 nM. Further, in assay [2], the “% of PrRP31” value is 12% and the affinity, expressed as Ki, was 32.4 nM.

B3: analog no. 56 (peptide)
peptide: SETHEHSMEIK([γGlu-Palmitoyl])TPDINPAWYASRGIRPVGRF-NH2
modifications: N-terminus assumed
SMILES: CCCCCCCCCCCCCCCC(=O)N[C@@H](CCC(=O)NCCCC[C@H](NC(=O)[C@@H](NC(=O)[C@H](CCC(=O)O)NC(=O)[C@H](CCSC)NC(=O)[C@H](CO)NC(=O)[C@H](Cc1c[nH]cn1)NC(=O)[C@H](CCC(=O)O)NC(=O)[C@H](Cc1c[nH]cn1)NC(=O)[C@@H](NC(=O)[C@H](CCC(=O)O)NC(=O)[C@@H](N)CO)[C@@H](C)O)[C@@H](C)CC)C(=O)N[C@H](C(=O)N1CCC[C@H]1C(=O)N[C@@H](CC(=O)O)C(=O)N[C@H](C(=O)N[C@@H](CC(N)=O)C(=O)N1CCC[C@H]1C(=O)N[C@@H](C)C(=O)N[C@@H](Cc1c[nH]c2ccccc12)C(=O)N[C@@H](Cc1ccc(O)cc1)C(=O)N[C@@H](C)C(=O)N[C@@H](CO)C(=O)N[C@@H](CCCNC(=N)N)C(=O)NCC(=O)N[C@H](C(=O)N[C@@H](CCCNC(=N)N)C(=O)N1CCC[C@H]1C(=O)N[C@H](C(=O)NCC(=O)N[C@@H](CCCNC(=N)N)C(=O)N[C@@H](Cc1ccccc1)C(N)=O)C(C)C)[C@@H](C)CC)[C@@H](C)CC)[C@@H](C)O)C(=O)O
For B3, the “% of PrRP31” value in assay [1] and in assay [2] was 57% each time. In addition, the Ki in assay [1] turned out to be 4.23 nM; in assay [2], 5.66 nM.

On to Palmitoyl-SRAHQHS[Nle]ETRTPDINPAWYTGRGIRPVGR[PheCl2]-NH2 [analog no. 15], for which the “% of PrRP31” value came out at 379% in assay [1] and 370% in assay [2]. The Ki in assay [1] was 1.3 nM; in assay [2], 1.05 nM.

In the case of Octanoyl-SRAHQHS[Nle]ETRTPDINPAWYTGRGIRPVGRF-NH2 [analog no. 4], the “% of PrRP31” value in assay [1] was determined as 503%; in assay [2] it was 254%. In addition, the Ki stood at 0.98 nM in assay [1] and 1.53 nM in assay [2].

For SRAHQHS[Nle]ETRTPDINPAWYTGRGIRPVGR[1Nal]-NH2 [analog no. 10], in assay [1], the “% of PrRP31” value stood at 4.8% and the affinity corresponds to a Ki of 102 nM. In addition, in assay [2], the “% of PrRP31” value came out at 11% and the Ki stood at 34.5 nM.
